Experimental data from patent publication US20160168210A1, “DERIVATIVES OF COLLAGEN-BINDING HAIRPIN PEPTIDES” (NATIONAL RESEARCH COUNCIL OF CANADA, priority 2012, published 2016).
Entries after “also recorded” stand apart in the source; their conditions may differ. Where no end group is shown, it is not given here.

Legend:
[1] = test system: fibrotic tissues of the lung; experiment: Fluorescence imaging in bleomycin-induced mouse model of pulmonary fibrosis; type: in vivo
Text: Tissue localization of the representative compound FL4247 containing a collagen-binding hairpin peptide was further examined using a bleomycin-induced mouse model of pulmonary fibrosis. […] This is accompanied by fluorescence localization into generally inflamed tissues in the oral cavities of these mice, which are induced through either mechanical or contact damages. It can therefore be concluded that FL4247 has an affinity for inflamed/fibrosing tissues in vivo, very likely due to specific binding of the collagen-responsive hairpin moiety to newly-secreted collagen enriched in these tissue environments.
Specifically, pulmonary instillation of bleomysin was used to initiate pulmonary fibrosis in a mouse model using immune-compromised nude mice. The objective was to determine if the fluorescent FL4247 compound would localize in fibrotic tissues of the lung induced by bleomycin. […] The imaging data thus obtained confirm that: 1) the fluorescence detected in vivo in the thorax region was indeed coming from the lung and from the heart; and 2) since no fluorescence was detected in the lung and heart of the control mouse, the signal detected in the fibrotic mouse injected with FL4247 is very likely a result of different lung tissues induced by fibrosis. […]

[2] = In vivo biodistribution by fluorescence imaging in a normal Sprague-Dawley rat
Description: (§1) Immune-compromised nude mice (20-30 g) and normal Sprague-Dawley rats (250-310 g; Charles River Laboratories, St-Constant, QC, Canada) were acclimated for at least 3 days prior to the start of the study. Animals were housed in microisolator cages and were kept on a 12-hr light/dark cycle with constant temperature and humidity. Food and water were provided ad libitum. Stock solutions of various agents and peptides of this invention were diluted in saline (0.9% sodium chloride) prior to use. Saline formulations of FL4247 were prepared in such a way that similar dose levels were achieved based on the body weight of the experimental animals used for the study (i.e. in mg/kg).
(§2) Of the different methods available, imaging with fluorescently-labeled test compounds is particularly useful for assessing the in vivo biodistribution in real time with live animals. Therefore, the biodistribution of FL4247 was followed over time in two nude mice each for two routes of administration: 1) intravenous (I.V.); and 2) intraperitoneal (I.P.). Another imaging experiment was carried out using a Sprague-Darley rat (Charles River Laboratories, St-Constant, QC, Canada) through a tail-vein (I.V.) administration of an FL4247 solution.
The biodistribution was also assessed using one rat in which FL4247 was injected intravenously (I.V.) through the tail vein. To illustrate the capacity for image contrast, only 10% (one tenth or 1/10) of FL4247 was used with the normal rat (FIG. 9C) as compared to the dosage of FL4247 used for imaging vascular injury in venous thrombosis (see FIG. 10). […] Then the fluorescence became more intense in both kidneys for the next 25 minutes and finally the fluorescence appeared in the bladder for the remainder of the experiment time. Although the head was not imaged during this experiment, ex vivo imaging was carried out at the end of the live-animal protocol with the dissected brain, heart, liver and both kidneys. A small amount of fluorescence was detected in the liver and a much stronger signal (about 10 times) was present in both kidneys.

[3] = In vivo biodistribution by fluorescence imaging in nude mice; design: species or system mouse; conditions: for fluorescence biodistribution: ~0.25 mg/kg
Description: as §1, §2
The I.V. injection route depicted similar results in both studies even though the imaging sequence parameters were different (study 1=1 image/2 minutes over 30 minutes; study 2=1 image/5 minutes over 60 minutes).
Similar results were obtained in two studies involving the I.P. route of injection. Different imaging parameters were again used (study 1=1 image/2 minutes over 60 minutes; study 2=1 image/5 minutes over 90 minutes). The I.P. injection of FL4247 led to the accumulation of the compound at the level of the head within 5 minutes. […] The distribution of FL4247 over the entire body is complete within 30 minutes accompanied by a slow accumulation of fluorescence in the bladder region.

[4] = test system: abdominal vena cava injured by FeCl3
Description: The application of ferric chloride on venous and arterial vessels was therefore the method used to produce the inflamed vasculature in the animal model. The carotid artery (arterial model) and the abdominal vena cava (venous model) were the chosen vessels for the imaging experiments with injured blood vessels undergong thrombosis.
The FeCl3 rat venous model of thrombosis was generated as described (Wang 2005) with some modifications. Briefly, rats were anesthetized with a 2.5% isoflurane/oxygen mixture and placed on a heat source (35-37° C.). The vena cava was then exposed via a midline incision and the region between the renal and iliolumbar veins was isolated. One minute after drug administration, a piece of filter paper (Gel Blot Paper, GB003, Whatman, Piscataway, N.J., USA; 7 mm diameter) saturated with 10% FeCl3 (EMD Chemicals Inc., Gibbstown, N.J., USA) was placed on the exposed surface of the vena cava and incubated for 3.5 minutes. During the application of FeCl3, the abdominal region was covered with aluminum foil. At the end of the incubation period, the filter paper was removed and the exposed viscera covered with a saline-soaked gauze.
In these imaging experiments, there were also a 30-minute waiting time after introduction of FeCl3 to the exposed vena cava to ensure the development of substantial vascular injury and the deposition of a thrombus.

[5] = target: rat-tail collagen type I (Rattus norvegicus, UniProt P02454+P02466); experiment: Retention of fluorescent peptide by collagen hydrogels, fluorescence imaging; type: binding; design: used together with rat-tail collagen (type I); from tissue; host or cells: rat tail; conditions: pre-formed or pre-mixed collagen hydrogel disks
rat-tail collagen type I, sequence (P02466 86-1125): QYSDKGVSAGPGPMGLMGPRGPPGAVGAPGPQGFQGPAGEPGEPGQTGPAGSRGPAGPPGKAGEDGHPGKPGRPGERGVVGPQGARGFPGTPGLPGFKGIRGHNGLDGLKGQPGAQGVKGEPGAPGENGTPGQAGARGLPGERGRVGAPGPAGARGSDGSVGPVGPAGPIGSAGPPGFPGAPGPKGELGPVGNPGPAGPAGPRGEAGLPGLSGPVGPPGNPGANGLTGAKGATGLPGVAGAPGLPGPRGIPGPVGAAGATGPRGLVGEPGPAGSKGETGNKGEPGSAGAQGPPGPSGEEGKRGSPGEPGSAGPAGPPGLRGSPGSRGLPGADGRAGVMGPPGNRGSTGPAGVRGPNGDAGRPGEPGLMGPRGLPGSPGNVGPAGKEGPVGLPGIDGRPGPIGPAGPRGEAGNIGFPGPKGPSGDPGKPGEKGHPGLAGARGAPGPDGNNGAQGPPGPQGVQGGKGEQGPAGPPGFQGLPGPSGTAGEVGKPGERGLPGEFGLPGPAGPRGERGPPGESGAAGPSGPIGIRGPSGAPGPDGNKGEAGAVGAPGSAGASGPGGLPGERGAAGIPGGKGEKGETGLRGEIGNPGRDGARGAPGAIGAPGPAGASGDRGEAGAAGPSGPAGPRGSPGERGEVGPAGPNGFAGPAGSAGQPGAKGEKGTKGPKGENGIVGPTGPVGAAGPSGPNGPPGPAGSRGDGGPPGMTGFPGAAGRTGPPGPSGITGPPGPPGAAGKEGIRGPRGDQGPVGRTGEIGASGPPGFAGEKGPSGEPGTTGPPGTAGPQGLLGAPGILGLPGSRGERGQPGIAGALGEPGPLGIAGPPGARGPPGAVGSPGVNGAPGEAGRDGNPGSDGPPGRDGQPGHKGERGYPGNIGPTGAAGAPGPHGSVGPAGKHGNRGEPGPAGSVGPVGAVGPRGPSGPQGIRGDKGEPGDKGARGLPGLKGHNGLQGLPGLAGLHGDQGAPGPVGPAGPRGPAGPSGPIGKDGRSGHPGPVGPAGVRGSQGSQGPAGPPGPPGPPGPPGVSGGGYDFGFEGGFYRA
rat-tail collagen type I, sequence (P02454 152-1207): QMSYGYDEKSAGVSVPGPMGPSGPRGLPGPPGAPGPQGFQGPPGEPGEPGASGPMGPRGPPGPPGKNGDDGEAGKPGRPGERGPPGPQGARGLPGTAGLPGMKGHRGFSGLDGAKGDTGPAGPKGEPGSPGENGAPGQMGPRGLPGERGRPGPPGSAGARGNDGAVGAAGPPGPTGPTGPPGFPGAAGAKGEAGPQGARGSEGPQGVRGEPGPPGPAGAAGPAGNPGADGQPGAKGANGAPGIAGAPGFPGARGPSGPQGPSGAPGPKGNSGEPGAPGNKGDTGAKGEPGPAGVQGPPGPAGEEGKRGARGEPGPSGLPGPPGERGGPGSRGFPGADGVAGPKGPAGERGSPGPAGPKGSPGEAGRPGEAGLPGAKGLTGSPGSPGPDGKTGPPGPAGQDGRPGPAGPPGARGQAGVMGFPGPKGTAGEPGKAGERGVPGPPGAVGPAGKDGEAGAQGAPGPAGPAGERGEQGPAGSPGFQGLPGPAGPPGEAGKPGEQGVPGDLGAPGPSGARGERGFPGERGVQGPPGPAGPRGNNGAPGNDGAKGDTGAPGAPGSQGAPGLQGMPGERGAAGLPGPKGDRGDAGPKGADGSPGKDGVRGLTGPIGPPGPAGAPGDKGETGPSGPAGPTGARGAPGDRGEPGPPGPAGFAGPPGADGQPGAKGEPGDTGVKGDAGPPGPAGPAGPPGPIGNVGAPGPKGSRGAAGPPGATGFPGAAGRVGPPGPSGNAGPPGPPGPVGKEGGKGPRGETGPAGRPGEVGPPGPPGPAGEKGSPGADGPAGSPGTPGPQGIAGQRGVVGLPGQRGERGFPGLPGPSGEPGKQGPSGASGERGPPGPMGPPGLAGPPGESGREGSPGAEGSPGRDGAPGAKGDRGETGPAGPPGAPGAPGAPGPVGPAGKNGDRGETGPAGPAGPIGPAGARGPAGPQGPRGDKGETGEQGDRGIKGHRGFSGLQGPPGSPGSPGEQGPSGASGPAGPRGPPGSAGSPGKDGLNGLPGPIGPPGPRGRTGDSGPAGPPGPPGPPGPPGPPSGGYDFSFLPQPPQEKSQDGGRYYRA
Text: Peptide P4247 conjugated to a fluorescent probe, i.e. FL4247 (Table 5), was therefore used together with rat-tail collagen (type I) to assess the binding capacity of CBLH peptides to collagen and to illustrate the potential applications of collagen hydrogels formulated with compounds of this invention. The fluorescent probe, HiLyte Fluor750 (AnaSpec, California) was selected with a maximum absorption at an optical wavelength of 750 nm and with a maximum fluorescence emission at 800 nm. Therefore, the intensity of fluorescence emissions would also be optimal for in vivo imaging of tissue locations with a differential enrichment of the injected fluorescent compound (see Examples 8-10). […] For this first experiment, FL4247 in a hydrogel solution were loaded onto the pre-formed collagen hydrogels and molecular diffusion off FL4247 was followed by fluorescence imaging (FIG. 8A, left image). […] Such FL4247-collagen hydrogel preparations (FIG. 8A, right) were then submerged in a large volume of buffer solutions (e.g. the PBS) and the degree of FL4247 retention by the hydrogels were followed by fluorescence imaging (FIG. 8B). […] However, the observed fluorescence intensity was still restricted close to the center of the hydrogel disks 30 minutes after the FL4247 solution was applied (FIG. 8A, left). […]

With “IRFTDGEWTWDDATKTWTWTEGGC-Fluor750 (not fully specified (C-terminus); printed as IRFTDGEWTWDDATKTWTWTEGGC-Fluor750; also: HiLyte Fluor750 conjugate) [FL4247, peptide P4247 conjugated to fluorescent probe HiLyte Fluor750]” the “mice with I.V. injection showing marked fluorescence in the lung” value ([1]; I.V.) was “two out of three mice”, the “fluorescence retention in fibrotic lung” value ([1]; tail vein injection, ~0.5 mg/kg) was “high degree of FL4247 fluorescence was retained in the area of the lung” and the “fluorescence biodistribution (live and ex vivo imaging)” value ([2]; I.V. tail vein, 0.025 mg/kg) was “differential accumulation in the head region, in the kidneys and in the bladder; also recorded: Nothing was detected in the brain and heart organs”. The “ex vivo signal in both kidneys relative to liver” value ([2]; I.V., end of live-animal protocol) was “about 10 times”, the “decrease of liver fluorescence” value ([2]; I.V., within 5 minutes) was 10 times and the “time to accumulation at the level of the head” value ([3]; I.P.) was at most 5 min. For the same substance, the “time to complete distribution over the entire body” value ([3]; I.P.) was at most 30 min, the fluorescence biodistribution ([3]; I.P.) was “far inferior over time compared to the I.V. injection; also recorded: no specific local accumulation of FL4247 was noted” and the fluorescence biodistribution ([3]; I.V.) was “accumulated rapidly in the head region followed by a slow decrease of fluorescent intensity over time; also recorded: accumulated in the bladder; also recorded: no other organs appeared to accumulate or retain FL4247”. The “fluorescence at the injured abdominal vena cava” value ([4]; I.V. 30 minutes after FeCl3 application, ~0.2 mg/kg) was “strong fluorescence signal”, the “signal in dissected thrombus weaker than along injured vasculature” value ([4]; ex vivo imaging, I.V. 30 minutes after FeCl3) was “about 3 times” and the clearance ([4]; rat venous thrombosis model, I.V.) was “rapid clearance of FL4247 via the kidneys to the bladder”. The “diffusion in / retention by collagen hydrogels (fluorescence)” value [5] was “significantly retarded the diffusion of FL4247 in the gel matrix; also recorded: could resist outward diffusion into buffer solutions”.
